Measurements taken from the supplement of paper PMC7877785.
± gives the uncertainty stated by the source.

Assay: self-splicing fitness, log relative to wild type (ln ratio); higher = more splicing; Tetrahymena group I intron in knt gene, E. coli kanamycin selection, DiMSum; sequences stand for … in CUCUCU…GGAGGGAAAAGUUAUCAGGCAUGCACCUGGUAGCUAGUCUUUAAACCAAUAGAUUGCAUCGGUUUAAAAGGCAAGACCGUCAAAUUGCGGGAAAGGGGUCAACAGCCGUUCAGUACCAAGUCUCAGGGGAAACUUUGAGAUGGCCUUGCAAAGGGUAUGGUAAUAAGCUGACGGACAUGGUCCUAACCACGCAGCCAAGUCCUAAGUCAACAGAUCUUCUGUUGAUAUGGAUGCAGUUCACAGACUAAAUGUCGGUCGGGGAAGAUGUAUUCUUCUCAUAAGAUAUAGUCGGACCUCUCCUUAAUGGGAGCUAGCGGAUGAAGUGAUGCAACACUGGAGCCGCUGGGAACUAAUUUGUAUGCGAAAGUAUAUUGAUUAGUUUUGGAGUACUCGUGGUCG
Method in brief: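 The eight P1ex-region nucleotides of an intron in the knt kanamycin-resistance gene on pET-22b(+) were all randomised and the library put into E. coli BL21(DE3). Six replicate transformations were grown overnight at 37°C or 30°C on LB agar with or without 25 μg/mL kanamycin, together with 100 μg/mL carbenicillin, 50 μM IPTG and 0.2% rhamnose. Colonies were pooled and amplicon-sequenced on an Illumina HiSeq 2500. Fitness from DiMSum is the error-weighted combination of wild-type-normalised replicate fold changes, kanamycin over none.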

Sequence	self-splicing fitness (ln) (37 °C)	self-splicing fitness (ln) (30 °C)
GUGCAGCAAUAUUACGUCAC	-2.14 ± 0.21	
GUGGAGCAAUAUUACGACGU	0.0174 ± 0.16	-1.15 ± 0.14
GUGGAGCAAUAUUACGAUCA	-0.101 ± 0.2	-2.19 ± 0.49
GUGGAGCAAUAUUACGAUCU	-2.6 ± 0.22	-2.68 ± 0.15
GUGGAGCAAUAUUACGCACA	-0.814 ± 0.33	-0.729 ± 0.22
GUGGAGCAAUAUUACGCCGA	-1.25 ± 0.28	-3.41 ± 0.43
GUGGAGCAAUAUUACGCGUC	-1.76 ± 0.47	-2.82 ± 0.35
GUGGAGCAAUAUUACGGAAC	-0.66 ± 0.45	
GUGGAGCAAUAUUACGGACC		-1.56 ± 0.38
GUGGAGCAAUAUUACGGAGU	-2.25 ± 0.29	-3.56 ± 0.31
GUGGAGCAAUAUUACGGCGC	-0.0496 ± 0.26	-1.42 ± 0.27
GUGGAGCAAUAUUACGGGGC	-1.93 ± 0.31	-3.48 ± 0.48
GUGGAGCAAUAUUACGUGCG	-2.9 ± 0.29	-2.23 ± 0.15
GUGGAGCAAUAUUACGUGCU	-3.09 ± 0.4	-3.68 ± 0.2
GUGGAGCAAUAUUACGUGGG	-2.7 ± 0.33	-2.28 ± 0.13
GUGGAGCAAUAUUACGUUAG	-2.35 ± 0.2	-3.94 ± 0.24
GUGUAGCAAUAUUACGAAAG	-1.4 ± 0.42	-2.33 ± 0.24
GUGUAGCAAUAUUACGAAGC	-0.684 ± 0.23	-2.07 ± 0.17
GUGUAGCAAUAUUACGAGGA		-2.9 ± 0.44
GUGUAGCAAUAUUACGCCUA	-0.813 ± 0.24	-1.92 ± 0.26
GUGUAGCAAUAUUACGCGAC	-1.02 ± 0.27	-1.33 ± 0.45
GUGUAGCAAUAUUACGCUCG	-0.53 ± 0.21	-1 ± 0.18
GUGUAGCAAUAUUACGCUGC	-1.08 ± 0.23	-3.26 ± 0.27
GUGUAGCAAUAUUACGCUUU	-2.54 ± 0.22	-3.2 ± 0.21
GUGUAGCAAUAUUACGGCCC	0.583 ± 0.3	0.713 ± 0.23

Sequence	self-splicing fitness (ln) (37 °C)	self-splicing fitness (ln) (30 °C)
GUGUAGCAAUAUUACGGCUG	-1.28 ± 0.25	-3.23 ± 0.23
GUGUAGCAAUAUUACGGGCG	-1.21 ± 0.18	-2.61 ± 0.27
GUGUAGCAAUAUUACGGUGC	-2.18 ± 0.18	-2.8 ± 0.21
GUGUAGCAAUAUUACGUAAG	-1.57 ± 0.16	-1.56 ± 0.1
GUGUAGCAAUAUUACGUCGA	-0.586 ± 0.12	-1.11 ± 0.14
GUGUAGCAAUAUUACGUCGG	-2.73 ± 0.33	-2.7 ± 0.24
GUGUAGCAAUAUUACGUGUU	-1.58 ± 0.12	-3.14 ± 0.17
GUGUAGCAAUAUUACGUUCU	0.00858 ± 0.11	-0.842 ± 0.09
GUGUAGCAAUAUUACGUUGA	-3.07 ± 0.36	-1.73 ± 0.14
GUUAAGCAAUAUUACGACCC	-0.221 ± 0.44	
GUUAAGCAAUAUUACGACCG	-1.22 ± 0.4	-2.84 ± 0.48
GUUAAGCAAUAUUACGAUAG	-2.07 ± 0.34	
GUUAAGCAAUAUUACGAUCC	0.0862 ± 0.16	-1.62 ± 0.13
GUUAAGCAAUAUUACGCACC	-2.13 ± 0.32	-2.89 ± 0.3
GUUAAGCAAUAUUACGCCCA	-0.355 ± 0.29	0.115 ± 0.22
GUUAAGCAAUAUUACGCGUU	-1.07 ± 0.12	-0.757 ± 0.08
GUUAAGCAAUAUUACGGAAC	-1.43 ± 0.34	
GUUAAGCAAUAUUACGGAAU	-1.39 ± 0.13	-2.75 ± 0.14
GUUAAGCAAUAUUACGGACU	-1.8 ± 0.2	-2.88 ± 0.2
GUUAAGCAAUAUUACGGGGU	-2.88 ± 0.35	-2.73 ± 0.28
GUUAAGCAAUAUUACGGUAA	-1.28 ± 0.14	-1.5 ± 0.15
GUUAAGCAAUAUUACGGUGA	-1.09 ± 0.12	-1.86 ± 0.15
GUUAAGCAAUAUUACGUAAG	-0.0396 ± 0.13	-0.147 ± 0.098
GUUAAGCAAUAUUACGUCCU	0.0564 ± 0.083	-0.303 ± 0.081
GUUAAGCAAUAUUACGUUCG	-0.376 ± 0.16	-1.6 ± 0.13

Sequence	self-splicing fitness (ln) (37 °C)	self-splicing fitness (ln) (30 °C)
GUUCAGCAAUAUUACGACGU	0.108 ± 0.08	0.000808 ± 0.063
GUUCAGCAAUAUUACGAUCA	-0.536 ± 0.14	-1.81 ± 0.19
GUUCAGCAAUAUUACGAUCG	-0.548 ± 0.16	-0.518 ± 0.13
GUUCAGCAAUAUUACGAUUU	0.331 ± 0.087	-0.241 ± 0.078
GUUCAGCAAUAUUACGCAUG	-1.02 ± 0.13	-0.538 ± 0.1
GUUCAGCAAUAUUACGCCAA	-1.72 ± 0.18	-1.32 ± 0.21
GUUCAGCAAUAUUACGCUCA	-0.298 ± 0.13	-0.457 ± 0.11
GUUCAGCAAUAUUACGCUCU	0.0537 ± 0.097	-0.149 ± 0.09
GUUCAGCAAUAUUACGCUUU	0.0124 ± 0.11	-0.726 ± 0.088
GUUCAGCAAUAUUACGGCAC	0.473 ± 0.24	-0.46 ± 0.21
GUUCAGCAAUAUUACGGCCC	0.24 ± 0.24	-0.59 ± 0.19
GUUCAGCAAUAUUACGGCCG	-0.72 ± 0.17	-2.57 ± 0.24
GUUCAGCAAUAUUACGGCGG	-2.06 ± 0.38	-4.13 ± 0.47
GUUCAGCAAUAUUACGGUCA	-0.536 ± 0.086	-1.42 ± 0.12
GUUCAGCAAUAUUACGGUUU	-0.0386 ± 0.061	-0.523 ± 0.052
GUUCAGCAAUAUUACGUCCA	-1.05 ± 0.21	-0.981 ± 0.17
GUUCAGCAAUAUUACGUCGU	0.241 ± 0.11	-0.64 ± 0.098
GUUCAGCAAUAUUACGUUGU	-0.287 ± 0.11	-1.68 ± 0.096
GUUGAGCAAUAUUACGAAUA	-1.44 ± 0.18	-1.6 ± 0.16
GUUGAGCAAUAUUACGACUU	-1.92 ± 0.21	-2.53 ± 0.2
GUUGAGCAAUAUUACGAGAC	-0.388 ± 0.31	
GUUGAGCAAUAUUACGAUAA	-1.94 ± 0.26	-3.96 ± 0.46
GUUGAGCAAUAUUACGAUAU	-1.31 ± 0.12	-2.32 ± 0.13
GUUGAGCAAUAUUACGAUUG	-1.87 ± 0.27	-4.05 ± 0.32
GUUGAGCAAUAUUACGCCGC	-2.15 ± 0.5	-3.06 ± 0.44

Sequence	self-splicing fitness (ln) (37 °C)	self-splicing fitness (ln) (30 °C)
GUUGAGCAAUAUUACGCGCG	-1.51 ± 0.23	-1.82 ± 0.21
GUUGAGCAAUAUUACGGAAU		-3.08 ± 0.31
GUUGAGCAAUAUUACGGGAG	-2.9 ± 0.38	
GUUGAGCAAUAUUACGGGUC	-1.89 ± 0.28	-2.23 ± 0.26
GUUGAGCAAUAUUACGGUUC	-1.58 ± 0.26	-3.63 ± 0.4
GUUGAGCAAUAUUACGUAGA	-0.549 ± 0.24	
GUUGAGCAAUAUUACGUAGG	-2.93 ± 0.37	-3.49 ± 0.22
GUUGAGCAAUAUUACGUAUC	-1.15 ± 0.15	-2.91 ± 0.15
GUUGAGCAAUAUUACGUUUG	-2.6 ± 0.24	-4.75 ± 0.32
GUUUAGCAAUAUUACGAAAG	-0.341 ± 0.22	-1.07 ± 0.18
GUUUAGCAAUAUUACGACCA	-0.943 ± 0.35	-1.56 ± 0.35
GUUUAGCAAUAUUACGACGA	-0.957 ± 0.24	-0.271 ± 0.17
GUUUAGCAAUAUUACGACUG	-0.416 ± 0.23	-4.08 ± 0.39
GUUUAGCAAUAUUACGAUGC	0.32 ± 0.12	-0.832 ± 0.089
GUUUAGCAAUAUUACGAUUA	-1.01 ± 0.2	-1.93 ± 0.16
GUUUAGCAAUAUUACGCCAA	-1.58 ± 0.24	-1.57 ± 0.27
GUUUAGCAAUAUUACGCCGA		-2.93 ± 0.4
GUUUAGCAAUAUUACGCUAA	-1.4 ± 0.21	-3.38 ± 0.32
GUUUAGCAAUAUUACGCUCC	1.01 ± 0.34	-1.82 ± 0.37
GUUUAGCAAUAUUACGGACG	-0.693 ± 0.15	-1.76 ± 0.15
GUUUAGCAAUAUUACGGGAA	-2.04 ± 0.19	-2.96 ± 0.23
GUUUAGCAAUAUUACGGGGG	-1.82 ± 0.26	-3.68 ± 0.37
GUUUAGCAAUAUUACGGUUA	-0.49 ± 0.12	-1.68 ± 0.18
GUUUAGCAAUAUUACGUACA	-0.508 ± 0.22	-0.582 ± 0.2
